This data set has as its target T1, simplified alpha-carboxysome shell of CsoS1A and CsoS4A-SII.
T1 chain 1: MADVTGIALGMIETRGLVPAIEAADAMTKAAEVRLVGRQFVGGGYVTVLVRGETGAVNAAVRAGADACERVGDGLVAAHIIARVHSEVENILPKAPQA
T1 chain 2: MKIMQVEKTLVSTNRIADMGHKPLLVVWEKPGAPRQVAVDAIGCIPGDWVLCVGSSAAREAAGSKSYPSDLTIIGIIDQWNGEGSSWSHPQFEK

B1: His6-APEX2-S2CP(30) (protein)
chain: HHHHHHMGSSHHHHHHSSGMGKSYPTVSADYQDAVEKAKKKLRGFIAEKRCAPLMLRLAFHSAGTFDKGTKTGGPFGTIKHPAELAHSANNGLDIAVRLLEPLKAEFPILSYADFYQLAGVVAVEVTGGPKVPFHPGREDKPEPPPEGRLPDPTKGSDHLRDVFGKAMGLTDQDIVALSGGHTIGAAHKERSGFEGPWTSNPLIFDNSYFTELLSGEKEGLLQLPSDKALLSDPVFRPLVDKYAADEDAFFADYAEAHQKLSELGFADAGSSKPEKPGSKITGSSGNDTQGSLITYSGGARG
In turn, B1 yielded an Average enzyme copy number per shell (T = 3) (copies per shell) of 11 and an Average enzyme copy number per shell (T = 4) (copies per shell) of 14.6.

The record behind these values is US20230302124.
